Assay results as given in patent publication US20260258131A1 (ADAGENE PTE, published 2026).
Numbering of substitutions follows the chain as printed.

Tests used:
[1] = target: recombinant mouse CTLA-4 protein (mouse, UniProt P09793 36-161, limits assumed); test: SPR (Biacore), antibody captured by anti-human IgG Fc, CTLA-4 in flow
Description: (§1) Serial dilutions of recombinant CTLA-4 proteins of different species origins were sequentially loaded and flowed through the chip to measure the kinetics of CTLA-4 antigen association (kₐ), followed by a buffer flow-through phase for dissociation kinetics (kd) measurement. The binding affinity (KD) is then calculated with […].

[2] = target: T1, recombinant cynomolgus monkey CTLA-4 protein (cynomolgus monkey, UniProt G7PL88 36-161); test: as above
T1 sequence: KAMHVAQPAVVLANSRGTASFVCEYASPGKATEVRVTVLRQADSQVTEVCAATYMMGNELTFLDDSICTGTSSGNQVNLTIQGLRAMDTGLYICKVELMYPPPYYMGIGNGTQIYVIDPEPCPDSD
Description: as §1

[3] = target: T2, recombinant rat CTLA-4 protein (rat, UniProt Q62859 36-161); test: as above
T2 sequence: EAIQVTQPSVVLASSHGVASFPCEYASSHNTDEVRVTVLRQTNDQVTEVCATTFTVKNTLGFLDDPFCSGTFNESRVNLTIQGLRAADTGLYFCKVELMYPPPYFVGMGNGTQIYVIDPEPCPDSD
Description: as §1

[4] = target: T3, human CTLA4 expressed on cells (human, UniProt P16410 36-223); test: cell-based or functional assay
T3 sequence (looked up): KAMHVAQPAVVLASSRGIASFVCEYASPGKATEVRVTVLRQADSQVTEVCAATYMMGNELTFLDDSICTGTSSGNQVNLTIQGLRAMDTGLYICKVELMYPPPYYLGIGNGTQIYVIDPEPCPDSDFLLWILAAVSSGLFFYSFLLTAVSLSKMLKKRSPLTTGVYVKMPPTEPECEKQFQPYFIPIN

[5] = target: T4, Recombinant human CTLA4-hisFc (human, UniProt P16410 36-161, limits assumed); test: ELISA, coated CTLA4-hisFc
T4 construct: Coated on the ELISA plate; the whole UniProt entry is named; also called recombinant human CLTA4-hisFc; its antigen; not shown: his tag and Fc
T4 sequence (looked up): T1 sequence with N14S, T18I, M106L
Description: Plates were blocked with PBS supplemented with 3% non-fat milk at 37° C. for 1 hour. After washing, 100 µL of 3-fold serial dilutions of antibodies were added to each well. After incubation at 37° C. for 1 hour, plates were washed four times, and 100 μL HRP conjugated anti-human IgG (Fab specific) (1:6000 dilution) was added to each well. Plates were incubated at 37° C. for 1 hour, washed four times, and then 50 μL TMB substrate solution was added to each well, and the plate was incubated at room temperature. Absorbance at 450 nm was measured after the reactions were stopped with 50 μL H2SO4 per well. The EC50 was evaluated by fitting the ELISA data using the sigmoidal (four-parameter logistic equation) model of GraphPad Prism 6 software. Experiments for some activatable antibodies were performed twice or more, leading to two or more calculated masking efficiencies being obtained for each of these activatable antibodies.
The purified activatable antibodies were treated with the proteases which recognize the cleavage sequences, and were then tested to determine whether removal of the masking peptide restored their activity. […] The reactions were carried out at 37° C. for 24 hours. […] The masking efficiency was then measured by ELISA as described above.

[6] = target: T5, biotinylated CTLA-4 protein (UniProt P16410 36-161, limits assumed, biotinylated (sites not given)); test: competition ELISA, biotinylated CTLA-4 on coated CD80 (competitor CD80)
T5 construct: also called receptor CTLA-4
T5 sequence (looked up): T1 sequence with N14S, T18I, M106L
Description: (§2) Relative CTLA-4 and its ligand binding was monitored by reading the absorbance at 450 nm wavelength in the micro-plate reader.

[7] = target: T5, biotinylated CTLA-4 protein; test: competition ELISA, biotinylated CTLA-4 on coated CD86 (competitor CD86)
Description: as §2

[8] = target: T6, recombinant human CTLA-4 protein (human, UniProt P16410 36-161, limits assumed); test: SPR (Biacore), antibody captured by anti-human IgG Fc, CTLA-4 in flow
T6 sequence (looked up): T1 sequence with N14S, T18I, M106L
Description: as §1

B1: TY21580 (antibody, human IgG1, V domains shown)
VH: EVQLVESGGGLVQPGGSLRLSCAASGYSISSGYHWSWIRQAPGKGLEWLARIDWDDDKYYSTSLKSRLTISRDNSKNTLYLQLNSLRAEDTAVYYCARSYVYFDYWGQGTLVTVSS
VL: DIQLTQSPSSLSASVGDRVTITCRASQSVRGRFLAWYQQKPGKAPKLLIYDASNRATGIPSRFSGSGSGTDFTLTISSLQPEDFATYYCQQSSSWPPTFGQGTKVEIKR
notes: also called parental antibody TY21580
- Kd [1]: 0.5 nM
- Kd [2]: 0.37 nM
- Kd [3]: 0.78 nM
- ADCP reporter activity (luciferase), EC50 [4]: 5.6 nM
- EC50 [5]: 0.298 nM

B2: TY24652 (antibody, human IgG1, kappa)
heavy: not shown
light: ETLCEPFATSVCRPGGGPLGLAGGGSDIQLTQSPSSLSASVGDRVTITCRASQSVRGRFLAWYQQKPGKAPKLLIYDASNRATGIPSRFSGSGSGTDFTLTISSLQPEDFATYYCQQSSSWPPTFGQGTKVEIKRTVAAPSVFIFPPSDEQLKSGTASVVCLLNNFYPREAKVQWKVDNALQSGNSQESVTEQDSKDSTYSLSSTLTLSKADYEKHKVYACEVTHQGLSSPVTKSFNRGEC
notes: also called non-cleaved form TY24652
- IC50 [6]: > 20000 nM
- IC50 [7]: > 4000 nM
- Kd [1]: 49.4 nM
- Kd [2]: 32.3 nM
- Kd [3]: 59.5 nM
- Kd [8]: 32.5 nM
